Test results reported in PMC10188207.

Key:
[1] = target: FoxP1 ZIP-lin (leucine zipper domain with the linker, residues 342-462), unlabeled wild type (human) (UniProt Q9H334); assay: SEC; Superdex 75 increase, 20 mM HEPES pH 7.8, 150 mM NaCl; unlabeled protein at 10 µM; molecular weight from a calibration curve with known proteins
[2] = target: FoxP1 ZIP(A356C)-lin labeled with BODIPY FL (human) (UniProt Q9H334); assay: fluorescence polarisation; fluorescence anisotropy; 5 nM BODIPY FL-labeled single-cysteine protein titrated with its unlabeled wild-type construct (0-5000 nM ZIP-lin, 0-200 nM ZIP-lin-FKH), 37 °C; two-state model, monomer-dimer equilibrium; duplicates
FoxP1 FKH domain (human) = assay: fluorescence anisotropy; settings: 200 nM labeled DNA, protein 0-500 nM; 'standard buffer' (composition, salt and pH not in material); dimerization assays at 37 C, DNA-binding temperature not stated; ex 480 nm, em 525 nm
[3] = system: FoxP1 ZIP-lin-FKH (human); assay: fluorescence anisotropy; settings: 200 nM labeled DNA, protein 0-500 nM; 'standard buffer' (composition, salt and pH not in material); dimerization assays at 37 C, DNA-binding temperature not stated; ex 480 nm, em 525 nm
[4] = target: FoxP1 ZIP(A356C)-lin-FKH labeled with BODIPY FL (human) (UniProt Q9H334); assay: fluorescence polarisation; fluorescence anisotropy; 5 nM labeled monomer preincubated with 10 nM unlabeled DNA, then titrated with unlabeled wild-type ZIP-lin-FKH that was previously denatured to ensure the monomeric form; apparent KD; monomer-dimer equilibrium
[5] = target: FoxP1 ZIP-lin-FKH (leucine zipper, linker and Forkhead domain, residues 342-548), unlabeled wild type (human) (UniProt Q9H334); assay: SEC; Superdex 75 increase, 20 mM HEPES pH 7.8, 150 mM NaCl; unlabeled protein at 10 µM; molecular weight from a calibration curve with known proteins
[6] = target: FoxP1 ZIP(A356C)-lin-FKH labeled with BODIPY FL (human) (UniProt Q9H334); assay: fluorescence polarisation; fluorescence anisotropy; 5 nM BODIPY FL-labeled single-cysteine protein titrated with its unlabeled wild-type construct (0-5000 nM ZIP-lin, 0-200 nM ZIP-lin-FKH), 37 °C; two-state model, monomer-dimer equilibrium; duplicates

Substance: FoxP1 ZIP-lin (leucine zipper domain with the linker, residues 342-462), unlabeled wild type (from UniProt Q9H334 342-462) (domain or fragment)
- stoichiometry N [1]: 2
- Kd [2]: 0.123 µM

Substance: FoxP1 FKH cognate DNA, Alexa488-labeled
- Kd (FoxP1 FKH domain (human)): 0.176 µM
- Kd [3]: 0.17 µM

Substance: FoxP1 ZIP-lin-FKH (leucine zipper, linker and Forkhead domain, residues 342-548), unlabeled wild type (from UniProt Q9H334 342-548) (domain or fragment)
- Kd [4]: 0.055 µM
- stoichiometry N [5]: 2
- Kd [6]: 0.029 µM
